The results in this text go back to patent US8530621B2, “Combined preparation of a thiazide diuretic and a loop diuretic” (The Regents of the University of California, priority 2007, dated 2013).

One assay has as its target T1, integrin αIIbβ3 (Homo sapiens, UniProt P05106+P08514).
T1 construct: expressed in transfected cells; host or cells: CHO (A5 cells)
Put plainly: PAC1 binding by flow cytometry in A5 cells transfected with talin F23. The settings on record: CHO cells stably expressing WT human αIIbβ3 (A5 cells), transient transfection with HA-talin F23. Type of assay: cell-based. An excerpt:
(§1) A-B. CHO cells were transiently transfected with plasmids encoding αIIb and β3, or mutants thereof. In some samples (indicated above) a plasmid encoding a shRNA for talin-1 (Tadokoro et. al. 2003) or a control shRNA was co-transfected with the integrin plasmids. Cells were double stained for integrin αIIbβ3 expression (B-D57) and activated αIIbβ3 (PAC1) and flow cytometry was used to measure the geometric mean fluorescence intensity (F) of PAC1 binding. Non-specific PAC1 binding (F0) was measured in the presence of a competitive antagonist of αIIbβ3, Ro43-5054 and maximal binding (Fmax) was measured in the presence of the activating antibody Anti-LIBS6. Activation index was defined as 100*(F−F0)/(Fmax−F0) (see Experimental Procedures). A. Activation of αIIb(R995A)β3 integrin was diminished in the cells co-transfected with talin-1 knockdown shRNA. Similarly, the β3(Y747A) mutation blocks talin binding to the MD site and the αIIb(R995A)β3(Y747A) integrin is not activated. B. Talin-mediated activation requires specific contacts between talin F3 and the β3 MP region. Depicted is the Activation Index (gray bars) or the αIIbβ3 expression, indicated as fluorescence intensity of D57 staining (black bars). The activating effect of αIIb(R995A) is diminished when it is paired with the β3 MP mutants β3(F727A) or β3(F730A). C-D. CHO cells stably expressing WT human αIIbβ3 (A5 cells), or a high-affinity chimeric integrin (αβPy cells), were transiently co-transfected with vectors for WT or mutant HA-tagged talin F23 and eGFP protein as a transfection marker. PAC1 binding was measured by flow cytometry in the subset of cells expressing GFP. Insets show representative western blots of cell lysates probed with anti-HA antibody and indicate that WT and mutant HA-talin F23 expressed to similar levels. C. Specific PAC1 binding in αIIbβ3-expressing A5 cells transfected with talin F23 mutants relative to that in cells transfected with wild type talinF23 (set as 100). […] D. PAC1 binding in αIIbα6β3β1-expressing αβPy cells transfected with talin F23 or its mutants relative to that in cells transfected with empty vector (set as 100). The MP-contacting talin F23 mutants (L325R, S365D, S379R, Q381V) inhibited activation, whereas the MD-contacting mutant talin F23(W359A) had no significant effect on activation levels. All data are an average of three of more measurements, error bars are standard deviations.
Contacts between talin and the MP region of the β3 cytoplasmic tail may constitute an interaction that is a key to the activation process. To test this concept, the effects of a number of designed mutations, both in the β3 tail and in the talin F3 sub-domain, were investigated. Integrin activation was assessed using the antibody PAC1 and flow cytometry as previously described (Partridge et al., 2005).
For experiments to assess the functional effect of point mutants in the β3 tail, CHO cells were co-transfected with pCDM8 plasmids coding for wildtype or mutant sequences of […] and β3. Transfection was done using the plus reagent and lipofectamine (Life Technologies); 24 hours later cells were stained with B-D57 and PAC1 in the presence and absence of Ro43-5054 or Anti-LIBS6. The biotinylated monoclonal antibody, B-D57 was used to detect expression of αIIbβ3, while PAC1, an activation specific, monoclonal IgM antibody was used to assess the activation state of the αIIbβ3 integrin. This antibody is an authentic ligand for integrin αIIbβ3 (Abrams et al., 1994) and its binding correlates with the binding of natural ligands, such as fibrinogen (Shattil et al., 1985). Cells were analyzed on a FACScan using both B-D57 and PAC1 antibodies as described previously (Partridge et al., 2005). The geometric mean fluorescence intensity (MFI) of PAC1 staining in the presence of Ro43-5054 (2 μM) was used to estimate non-specific PAC1 binding (F0). […]

Assay [1] concerns αIIbα6β3β1 high-affinity chimeric integrin (αβPy cells). In words: PAC1 binding by flow cytometry in αβPy cells transfected with talin F23 or DOK1. It is filed as cell-based. As to conditions: talin-dependent constitutively active chimeric integrin, transient transfection.
Source text: as §1
A. CHO cells stably expressing a high-affinity chimeric integrin (αβPy cells) were transiently co-transfected with empty vector (pCDNA3.1), WT talin F23 or full-length DOK1; eGFP protein was used as a transfection marker. The level of integrin activation was measured by flow cytometry of harvested cells using PAC1 antibody as described in the legend to FIG. 3. Data are an average of three or more measurements; error bars are standard deviations. B. Overlay of the DOK and talin PTB domains. The critical differences between the two domains are the residues between strands S1 and S2. C. Weighted shift map (see Experimental Procedures) obtained by observing ^1H-^15N HSQC spectra on addition of the β3/PIPKIα peptide to the DOK PTB domain (10:1 molar ratio). Grey columns indicate residues whose peaks experienced severe line broadening in the bound state and could not be assigned.
To investigate this possibility we used αβPy cells, a CHO cell-line expressing a talin-dependent constitutively active chimeric integrin composed of the extracellular and transmembrane domains of αIIbβ3 and the cytoplasmic tails of α6β1 (Baker et al., 1997). We transiently transfected αβPy cells with cDNAs encoding the mutant F23 constructs (L325R, S365D, S379R, or Q381V).
For experiments to assess the functional effect of point mutants in the β3 tail, CHO cells were co-transfected with pCDM8 plasmids coding for wildtype or mutant sequences of βIIb and β3. […]
Background: A flow cytometer gives signals particle by particle.

B1: L325R: HA-tagged mouse talin F23 (residues 206-405) mutant L325R expressed by transfection (protein, UniProt P26039 206-405, looked up, variant L325R)
chain: SRDPVQLNLLYVQARDDILNGSHPVSFDKACEFAGFQCQIQFGPHNEQKHKAGFLDLKDFLPKEYVKQKGERKIFQAHKNCGQMSEIEAKVRYVKLARSLKTYGVSFFLVKEKMKGKNKRVPRLLGITKECVMRVDEKTKEVIQEWSLTNIKRWAASPKSFTLDFGDYQDGYYSVQTTEGEQIAQLIAGYIDIILKKKKS
modifications: F2-F3 subdomains HA tag
notes: HA-tagged mouse talin F23 (residues 206-405) mutant L325R expressed by transfection
In the case of B1, in the assay with integrin αIIbβ3, the “integrin αIIbβ3 activation (PAC1 binding)” value (shortened to “integrin αIIbβ3 activation”) is listed as “diminished the ability of F23 to activate integrin αIIbβ3”. Besides, the “integrin activation (PAC1 binding)” value in assay [1] is recorded as “blocked integrin activation”.

B2: S365D: HA-tagged mouse talin F23 (residues 206-405) mutant S365D expressed by transfection (protein, UniProt P26039 206-405, looked up, variant S365D)
chain: SRDPVQLNLLYVQARDDILNGSHPVSFDKACEFAGFQCQIQFGPHNEQKHKAGFLDLKDFLPKEYVKQKGERKIFQAHKNCGQMSEIEAKVRYVKLARSLKTYGVSFFLVKEKMKGKNKLVPRLLGITKECVMRVDEKTKEVIQEWSLTNIKRWAASPKDFTLDFGDYQDGYYSVQTTEGEQIAQLIAGYIDIILKKKKS
modifications: F2-F3 subdomains HA tag
notes: HA-tagged mouse talin F23 (residues 206-405) mutant S365D expressed by transfection
For the molecule B2, in the assay with integrin αIIbβ3, the “integrin αIIbβ3 activation” value is “diminished the ability of F23 to activate integrin αIIbβ3”. For the same molecule, the “integrin activation (PAC1 binding)” value in assay [1] is listed as “blocked integrin activation”.

B3: F23(W359A): talin F23 mutant W359A that strongly inhibits the MD binding site (protein)
chain: SRDPVQLNLLYVQARDDILNGSHPVSFDKACEFAGFQCQIQFGPHNEQKHKAGFLDLKDFLPKEYVKQKGERKIFQAHKNCGQMSEIEAKVRYVKLARSLKTYGVSFFLVKEKMKGKNKLVPRLLGITKECVMRVDEKTKEVIQEWSLTNIKRAAASPKSFTLDFGDYQDGYYSVQTTEGEQIAQLIAGYIDIILKKKKS
modifications: left off: small tags and cut ends
For B3, the “integrin αIIbβ3 activation” value in the assay with integrin αIIbβ3 is recorded as “prevent activation”. Moreover, in assay [1], the “integrin activation (PAC1 binding)” value is “had no effect on activation”.

B4: Q381V: HA-tagged mouse talin F23 (residues 206-405) mutant Q381V expressed by transfection (protein, UniProt P26039 206-405, looked up, variant Q381V)
chain: SRDPVQLNLLYVQARDDILNGSHPVSFDKACEFAGFQCQIQFGPHNEQKHKAGFLDLKDFLPKEYVKQKGERKIFQAHKNCGQMSEIEAKVRYVKLARSLKTYGVSFFLVKEKMKGKNKLVPRLLGITKECVMRVDEKTKEVIQEWSLTNIKRWAASPKSFTLDFGDYQDGYYSVVTTEGEQIAQLIAGYIDIILKKKKS
modifications: F2-F3 subdomains HA tag
notes: HA-tagged mouse talin F23 (residues 206-405) mutant Q381V expressed by transfection
For B4, in the assay with integrin αIIbβ3, the “integrin αIIbβ3 activation” value is “diminished the ability of F23 to activate integrin αIIbβ3”. Besides, the “integrin activation (PAC1 binding)” value in assay [1] is reported as “blocked integrin activation”.

B5: S379R: HA-tagged mouse talin F23 (residues 206-405) mutant S379R expressed by transfection (protein, UniProt P26039 206-405, looked up, variant S379R)
chain: SRDPVQLNLLYVQARDDILNGSHPVSFDKACEFAGFQCQIQFGPHNEQKHKAGFLDLKDFLPKEYVKQKGERKIFQAHKNCGQMSEIEAKVRYVKLARSLKTYGVSFFLVKEKMKGKNKLVPRLLGITKECVMRVDEKTKEVIQEWSLTNIKRWAASPKSFTLDFGDYQDGYYRVQTTEGEQIAQLIAGYIDIILKKKKS
modifications: F2-F3 subdomains HA tag
notes: HA-tagged mouse talin F23 (residues 206-405) mutant S379R expressed by transfection
As for B5, the “integrin αIIbβ3 activation” value with integrin αIIbβ3 is on record as “diminished the ability of F23 to activate integrin αIIbβ3”. The “integrin activation (PAC1 binding)” value in assay [1] is given as “blocked integrin activation”.

B6: wild type F23: F2 and F3 sub-domains (F23) of talin, residues 206-405, wild type (protein, UniProt P26039 206-405, looked up, fragment)
chain: SRDPVQLNLLYVQARDDILNGSHPVSFDKACEFAGFQCQIQFGPHNEQKHKAGFLDLKDFLPKEYVKQKGERKIFQAHKNCGQMSEIEAKVRYVKLARSLKTYGVSFFLVKEKMKGKNKLVPRLLGITKECVMRVDEKTKEVIQEWSLTNIKRWAASPKSFTLDFGDYQDGYYSVQTTEGEQIAQLIAGYIDIILKKKKS
modifications: F2-F3 subdomains
notes: F2 and F3 sub-domains (F23) of talin, residues 206-405, wild type
For the molecule B6, the “integrin αIIbβ3 activation” value in the assay with integrin αIIbβ3 is “activated the integrin”. Moreover, in assay [1], the “integrin activation (PAC1 binding)” value was “modestly increased activation”.

B7: DOK1: PTB-containing protein, full-length DOK1, transfected into αβPy cells (protein)
chain: MDGAVMEGPLFLQSQRFGTKRWRKTWAVLYPASPHGVARLEFFDHKGSSSGGGRGSSRRLDCKVIRLAECVSVAPVTVETPPEPGATAFRLDTAQRSHLLAADAPSSAAWVQTLCRNAFPKGSWTLAPTDNPPKLSALEMLENSLYSPTWEGSQFWVTVQRTEAAERCGLHGSYVLRVEAERLTLLTVGAQSQILEPLLSWPYTLLRRYGRDKVMFSFEAGRRCPSGPGTFTFQTAQGNDIFQAVETAIHRQKAQGKAGQGHDVLRADSHEGEVAEGKLPSPPGPQELLDSPPALYAEPLDSLRIAPCPSQDSLYSDPLDSTSAQAGEGVQRKKPLYWDLYEHAQQQLLKAKLTDPKEDPIYDEPEGLAPVPPQGLYDLPREPKDAWWCQARVKEEGYELPYNPATDDYAVPPPRSTKPLLAPKPQGPAFPEPGTATGSGIKSHNSALYSQVQKSGASGSWDCGLSRVGTDKTGVKSEGST
B7: in assay [1], the “integrin activation (PAC1 binding)” value is recorded as “inhibited integrin activation”.
